From the supplement of paper PMC9170038

Assays:
MS2 coat protein = assay: apparent KD of MS2 coat protein; higher = weaker reporter binding; conditions: Eterna round: R107
Description: (§1)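 RNA-MaP round R107: designed RNA switches with theophylline, tryptophan, arginine or FMN aptamers are transcribed on-chip within common flanks. They are titrated with SNAP-549-labelled MS2 coat protein in RNA-MaP buffer (100 mM Tris pH 7.5, 80 mM KCl, 4 mM MgCl2), without ligand or with the indicated ligand. Median apparent KD per design.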

[1] = tested on: K4 kissing-loop RNA reporter; assay: apparent KD of K4 kissing-loop reporter; higher = weaker reporter binding; conditions: Eterna round: R107;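 also: bound reporter read as fluorescence of individual clusters on recovered sequencing chips by microscopy, with normalized cluster intensities fitted with a binding model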
Description: as §1, with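 “a labelled K4 kissing-loop RNA reporter” for “SNAP-549-labelled MS2 coat protein”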

[2] = input ligand: theophylline 20 uM
[3] = input ligand: theophylline 2 mM
[4] = input ligand: tryptophan 2.4 mM

Row | Sequence | apparent KD of MS2 coat protein (MS2 coat protein; input ligand: arginine 13.2 mM) [nM] | apparent KD of MS2 coat protein (MS2 coat protein; input ligand: none) [nM] | apparent KD of MS2 coat protein (MS2 coat protein; [2]) [nM] | apparent KD of MS2 coat protein (MS2 coat protein; [3]) [nM] | apparent KD of MS2 coat protein (MS2 coat protein; [4]) [nM] | apparent KD of K4 kissing-loop reporter ([1]; input ligand: FMN 200 uM) [nM] | apparent KD of K4 kissing-loop reporter ([1]; input ligand: arginine 13.2 mM) [nM] | apparent KD of K4 kissing-loop reporter ([1]; input ligand: none) [nM] | apparent KD of K4 kissing-loop reporter [1, 2] [nM] | apparent KD of K4 kissing-loop reporter [1, 4] [nM]
1 | AAAAGUGGGUCAAUUAUUUAAACUUCAGAAGGAGCGUGAUGUUUCACAGGUAGGUCGCUGAUAACAUGAGGAUCACCCAUGUAUU [JR_ExcArginiA_Sub007] | 30.8 | 47.4 | 59.8 | 54.4 | 47 | – | – | – | – | –
2 | AAAAUAAAACGUGCAAAAUCCUAAUGUGAAGGAGCGCACGAAAGUGCAGGUAGGUCGCACAUGAGGAUCACCCAUGUAGCACGAA [MAT - Exclusion Arginine A - Mod of Eli - D1] | 60.1 | 300 | 221 | 367 | 230 | – | – | – | – | –
3 | AAAAUAAAUAAAACACGUAACAUGAAGGAUACCAGACCGGAAACGGUCCCUUGGCAGCCUCUACAUGAGGAUCACCCAUGUCGUG [Mat - Same State Theophlline A - Mod of Eli - D18] | 110 | – | 141 | – | 258 | – | – | – | – | –
4 | AAAAUAAAUAAAACGGGUAACAUGAAGGAUACCAGCCAGGAAACUGGCCCUUGGCAGCCUCUACAUGAGGAUCACCCAUGUCCCG [Mat - Same State Theophlline A - Mod of Eli - D14] | 169 | – | 142 | – | 454 | – | – | – | – | –
5 | AAACAUGAGGAUCACCCAUGUUCUCGUGUCCGAGGACCGGUACGGCCGCCACUCGGUUCUCGCGAGGAUGGUCAAAGACUAUCCA [Omei Trp A SS B v6] | 22.9 | 45.1 | 53.6 | 46.6 | 29 | – | – | – | – | –
6 | AAACGCCACGGAAGGAGCGACAUGAGGAUCACCCAUGUAGAUUUGGCGGAUGCACCCUCCUGUCAGGUAGGUCGCCGUGCGCUAA [XArg-B24] | 51.8 | 61 | 90.2 | 99.9 | 100 | – | – | – | – | –
7 | AAACGUUGCUCAGAUACCAGACAUGAGGAUCACCCAUGUACCAAGGUAAAGAAAUAACGUGUCCCUUGGCAGCUGAGCAACGAAA [MAT - Exclusion Theophlline B - Mod of Eli - D11] | 13.8 | – | 13.8 | – | 11.1 | – | – | – | – | –
8 | AAACUAACGAGAGGAAACCUCGAGGGUGAUACCAGCACAUAAGGGUGCCCUUGGCAGCACCGACGUACAUGAGGAUCACCCAUGU [Gexegees] | 56.6 | – | 154 | – | 169 | – | – | – | – | –
9 | AAAGAUUCCUGAACGCCGCAUACCGAUGAUACCAGCCAACGGAAAGGCCCUUGGCAGCAUUAAACAUGAGGAUCACCCAUGUCUA [theeternabot_exclusion_MS2_Theo_A_43] | 11.4 | – | 15 | – | 12.1 | – | – | – | – | –
10 | AAAGGUCGCAAUAAAUCUCCUACAUGUGAAGGAGCGCGCGAAAGCGCAGGUAGGUCGCACAUGAGGAUCACCCAUGUGAGCGACC [MAT - Exclusion Arginine A - Mod of Eli - D3] | 9.41 | 11.5 | 14.5 | 13.1 | 10.8 | – | – | – | – | –
11 | AAAUAAAUACAUGAGGAUCACCCAUGUGAAGGAGCGCCCGUUAGGGCAGGUAGGUCGCACAUGAAUAACUCCGUGCAAAAGCACA [ArgEX 18 #OpenEnded] | 20.9 | 29 | 38.8 | 37.1 | 31.3 | – | – | – | – | –
12 | AACAACAAGGGAAGGAGCGCGAAUAAUAGACAUGAGGAUCACCCAUGUAUCAUGGGAUUAACGCAGGUAGGUCGCCCACAAACAA [#07 Exclusion - Arginine B] | 60.4 | 127 | 155 | 152 | 71.7 | – | – | – | – | –
13 | UUAGUCUAGAGAAGGAGCGAGUGAUGUUCGCAGCCCAAAUAAUAAUAAUAAUAAGGGCAUCCUCAGGUAGGUCGCUCUAGACAUU [AK5 Exc Arginine B] | – | – | – | – | – | 335 | 290 | 334 | 354 | 292
14 | UUAGUCUAGAGAAGGAGCGAGUGAUGUUCGCAUGCUAUGAUGAAUUCAUCAUAGUUUAAUCCUCAGGUAGGUCGCUCUAGACAUU [AK7 Exc Arginine B] | – | – | – | – | – | 427 | 339 | 418 | 355 | 350
15 | UUAGUUGAAAGUGAUACCAGACGAGUGAAGGGAAGAAAUUAAGUUGGAGUGAUGUUCCGCGUCCCUUGGCAGCACUUUGUAAUUU [Exclusion Theophylline B GF 22] | – | – | – | – | – | 135 | 151 | 125 | 161 | 121
16 | UUCCACCGAGAAGGAUAUUAUGCUGGACUUGUUUAAGUGUUAAAUAGUGAUGUUAUUUGAUCGGAAUAAGAAGGUCUCAAGUUGA [theeternabot_sameState_KL_FMN_B_44] | – | – | – | – | – | 155 | 131 | 145 | 142 | 119
17 | UUGAGCCGGACCGAAGUCCGGCUCUGCGAGCGAGGACCGGUACGGCCGCCACUCGGUGCAGUGAUGUUGCAUGGCCGCAAGGCCG [#2 Exclusion - Tryptophan A Attempt #8 (HarryS)] | – | – | – | – | – | 424 | 286 | 418 | 339 | 401
18 | UUGAGUGAUGUUCAAUUAAUGUGCAACGAUACCAGCUCAUAUGCUAGCCCUUGGCAGCGUGGUAACGUAAUUUUAUCAAAUGAUA [theeternabot_exclusion_KL_Theo_A_39] | – | – | – | – | – | 232 | 199 | 198 | 205 | 145
19 | UUGUCCGGGUGAUGGUCAUCACGUGGCGGGCGAGGACCGGUACGGCCGCCACUCGACUUUGCAGUGAUGUUGCAAACCGGACAAU [Exclusion - Tryptophan A (Freestyle 23)] | – | – | – | – | – | 231 | 174 | 192 | 224 | 210
20 | UUGUUUGGUUGAGAGGUUGGGCGAGAUGAUACCAGUAGAGAAGAGUACCCUUGGCAGCAUAGGAAAGAUAUAGUGAUGUUGUAUA [SSTheophA.Q] | – | – | – | – | – | 354 | 313 | 357 | 165 | 309
